Measurements reported in publication doi:10.1101/2023.05.01.538930 (bioRxiv, 2023).

What was measured:
crystal structure = biological target: the molecule itself; assay: crystal structure
[1] = biological target: T1, GajA of the Gabija system from Bacillus cereus VD045 (Bacillus cereus VD045, UniProt J8H9C1 1-578); assay: reconstitution of the complex from purified proteins
T1 sequence (looked up): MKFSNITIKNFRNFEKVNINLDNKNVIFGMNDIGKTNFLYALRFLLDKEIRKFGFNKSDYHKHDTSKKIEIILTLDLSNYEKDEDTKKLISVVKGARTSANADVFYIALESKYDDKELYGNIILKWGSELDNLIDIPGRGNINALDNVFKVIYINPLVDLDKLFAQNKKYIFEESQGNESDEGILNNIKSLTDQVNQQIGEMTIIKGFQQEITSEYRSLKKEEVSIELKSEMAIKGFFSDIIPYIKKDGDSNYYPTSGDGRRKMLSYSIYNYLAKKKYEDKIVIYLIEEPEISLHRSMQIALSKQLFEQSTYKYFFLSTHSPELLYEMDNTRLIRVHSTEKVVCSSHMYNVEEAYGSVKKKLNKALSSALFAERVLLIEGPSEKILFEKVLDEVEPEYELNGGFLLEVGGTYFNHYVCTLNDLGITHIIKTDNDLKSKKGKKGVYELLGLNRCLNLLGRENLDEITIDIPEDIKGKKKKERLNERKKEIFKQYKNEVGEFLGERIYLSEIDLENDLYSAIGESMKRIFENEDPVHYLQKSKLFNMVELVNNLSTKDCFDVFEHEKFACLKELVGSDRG

B1: Tad2 from phage SPO1 (construct for crystallization) (natural protein, Bacillus phage SPO1)
chain: MKTKMSFGEALEVLKQGMQVYRSGWNGKNMFLFLKSSDALASDFGFGFGEYINEPVFGNIIFIKTADNKIHAWVPSQTDVLAEDWDIVS
stoichiometry N (crystal structure): 4

B2: GajB of the Gabija system from Bacillus cereus VD045 (natural protein, UniProt J8HQ06 1-494, looked up)
chain: MSREQIIKDGGNILVTAGAGSGKTTILVSKIEADLKENKTHYSIAAVTFTNKAAKEIEGRLGYSSRGNFIGTNDGFVESEIIRPFIKDAFGNDYPDNFTAEYFDNQFASYDKGLQVLKYQNILGTYSNPKKNFKFQLALDILKKSLVARQYIFSKYFKIFIDEYQDSDKDMHNLFMYLKDQLKIKLFIVGDPKQSIYIWRGAEPENFNGLIENSTDFNKYHLTSNFRCCQDIQNYSNLFNEETRSLIKEKNEVQNVISIADDMPISDILLKLTEEKQVLNIEAELVILVRRRNQAIEIMKELNEEGFNFIFIPQTPLDRATPNATLLKEVIKYVKNDRYSIYDLAAEIVGNLSSREIKEIQKIINELLVPNINQVLINQVLINLFAKLEITLDTREITAFTEVMMTNEFDIAFDTNEYLHKIFTVHSAKGLEFNQVIITASDYNVHYNRDTNEHYVATTRAKDKLIVIMDNKKYSDYIETLMKELKIKNIIKSI
binding result [1]: binds
